{"source": "patent US6086895", "target": "fibronectin (125I labelled)", "assay": "inhibition assay in tubes; control lysate undiluted; 125I fibronectin bound to S. aureus Cowan I cells (competitor)"}
{"substance": "lysate of E. coli TG1 with pUC18-vector without insert (negative control) (pool or library)", "values": [{"measurement": "% binding in relation to control without lysate", "result": 83.3, "unit": "%"}]}
